Reference: article PMC5587573

Target: T1, Escherichia coli trigger factor (Escherichia coli), P0A850
T1 chain: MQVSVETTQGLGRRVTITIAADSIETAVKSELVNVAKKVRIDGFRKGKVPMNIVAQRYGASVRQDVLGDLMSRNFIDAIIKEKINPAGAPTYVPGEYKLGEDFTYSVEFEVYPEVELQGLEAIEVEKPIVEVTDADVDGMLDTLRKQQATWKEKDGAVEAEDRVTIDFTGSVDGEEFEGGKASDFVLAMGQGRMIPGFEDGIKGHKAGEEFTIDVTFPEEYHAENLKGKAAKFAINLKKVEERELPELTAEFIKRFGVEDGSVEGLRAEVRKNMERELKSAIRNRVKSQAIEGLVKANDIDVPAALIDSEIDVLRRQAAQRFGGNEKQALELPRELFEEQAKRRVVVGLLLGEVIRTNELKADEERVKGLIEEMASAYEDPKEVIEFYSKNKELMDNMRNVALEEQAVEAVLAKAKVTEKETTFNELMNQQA
Assay: SAXS (static); five to eight protein concentrations; 20 mM Tris pH 7.5, 150 mM KCl; 20 °C; BM29 beamline, ESRF; self-association
Details: remark: other sources report otherwise

B1: Escherichia coli trigger factor, P0A850 1-432 (natural protein)
chain: T1 chain
  stoichiometry N: 2
